This note sets out measurements from PMC5290273 (Nature Communications, 2017).

First the molecules themselves.
B1: His6-tagged wild-type AFF4^ELLBow (AFF4 301–351) [human] / Sumo-ELL2^Occ, wild type [human] (parent complex)
chain 1: PSQPLDASASGDVSCVDEILKEMTHSWPPPLTAIHTPCKTEPSKFPFPTKE
chain 2: EPSAIELPDYLIKYIAIVSYEQRQNYKDDFNAEYDEYRALHARMETVARRFIKLDAQRKRLSPGSKEYQNVHEEVLQEYQKIKQSSPNYHEEKYRCEYLHNKLAHIKRLIGEFDQQQAESWS
B2: Sumo-ELL2^Occ, wild type [human] / fluorescently labelled AFF1^ELLBow peptide 358–390 [modified: C-FAM-GABA- at the N-terminus (FAM: 5-carboxyfluoroscein; GABA: γ-amino-butyric acid spacer); C-terminal amide; C-FAM-GABA- at the N-terminus … (parent complex)
chain 1: B1 chain 2
chain 2: EILKEMTHSWPPPLTAIHTPSTAEPSKFPFPTK

The variants in the first test derive from B1. Nature of the test: fluorescence polarisation competition; residual anisotropy at the highest unlabelled AFF4 concentration, about 30 µM read from the x axis; higher residual anisotropy = weaker competition; read off a plot. (In fluorescence polarisation assays a small probe gives low polarisation when free and higher when bound to something large.)
On to chain 1 PSQPLDASASGDVSCVDEILKEMTHSDPPPDTADHTPCKTEPSKFPFPTKE [chain 1 W27D, chain 1 L31D, chain 1 I34D], for which the response was ~46 mP. Same read-out and setting: the result for chain 1 PSQPLDASASGDVSCVDEILKEMTHSWPPPDTADHTPCKTEPSKFPFPTKE [chain 1 L31D, chain 1 I34D] reads ~17 mP; that for chain 1 PSQPLDASASGDVSCVDEILKEDTHSWPPPDTADHTPCKTEPSKFPFPTKE [chain 1 M23D, chain 1 L31D, chain 1 I34D], ~63 mP.

The variants in a further test derive from B1. The description is as above. The source holds these as a separate data set.
Consider chain 1 PSQPLDASASGDVSCVPPILKEMTHSWPPPLTAIHTPCKTEPSKFPFPTKE [chain 1 D17P, chain 1 E18P], for which the response is ~7 mP.

In a further test the parent is B2. The test can be described thus: fluorescence polarisation, direct titration; signal at the highest Sumo-ELL2 concentration, about 30 µM read from the x axis; read off a plot.
Regarding chain 1 EPSAIELPDYLIKYIAIVSYEQRQNYKDDFNAEYDEYRALEARMETVARRFIKLDAQRKRLSPGSKEYQNVHEEVLQEYQKIKQSSPNYEEEKYRCEYLHAKLAHITRLIGEFDQQQAESWS [chain 1 H41E, chain 1 H90E, chain 1 N101A, chain 1 K107T], the response is ~7 mP.
